# Positions count from the first letter of the chain named. Numbers in names are those of the source.
# T1: Human IL13Rα2 (human, UniProt Q14627 27-343, limits assumed)
# T1 construct: also called human recombinant IL13Rα2; Human IL13Ra2
# T1 sequence (looked up): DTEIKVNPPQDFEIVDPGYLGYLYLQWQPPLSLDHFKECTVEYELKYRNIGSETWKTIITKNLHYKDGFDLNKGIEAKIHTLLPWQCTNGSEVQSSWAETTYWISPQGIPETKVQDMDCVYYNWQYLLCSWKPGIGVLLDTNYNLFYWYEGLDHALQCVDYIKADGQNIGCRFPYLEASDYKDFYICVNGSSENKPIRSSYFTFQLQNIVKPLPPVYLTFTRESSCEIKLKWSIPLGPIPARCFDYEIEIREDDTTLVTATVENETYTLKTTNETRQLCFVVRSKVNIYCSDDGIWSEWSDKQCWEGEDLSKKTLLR
# T2: human recombinant IL13Rα2hFc (cat #7147-IR-100, R&D Systems) (human, UniProt Q14627 27-343)
# T2 construct: Bought; also called recombinant human IL13Ra2; not shown: human Fc ('hFc') of the bought fusion protein
# T2 sequence (looked up): T1 sequence (looked up)
# B1: Chimeric antibody (VH and VL of murine Ab clone 47 in human constant regions) (antibody, V domains shown)
# VH: QVQLQQPGAELVRPGASVKLSCKASGYTFSNYLMNWVKQRPEQDLDWIGRIDPYDGDIDYNQNFKDKAILTVDKSSSTAYMQLSSLTSEDSAVYYCARGYGTAYGVDYWGQGTSVTVSS
# VL: not shown
# notes: Full-length IgG, murine variable regions with human constant regions; also called chimeric IgG; Chimeric Ab
# B2: Humanized antibody VH1 + VL1 (antibody, human IgG1, kappa, V domains shown)
# VH: QVQLVQSGAEVKKPGSSVKVSCKASGYTFSNYLMNWVRQAPGQGLEWMGRIDPYDGDIDYNQNFKDRVTITADKSTSTAYMELSSLRSEDTAVYYCARGYGTAYGVDYWGQGTLVTVSS
# VL: DIVMTQSPDSLAVSLGERATINCRASESVDNYGISFMNWYQQKPGQPPKLLIYAASRQGSGVPDRFSGSGSGTDFTLTISSLQAEDVAVYYCQQSKEVPWTFGGGTKLEIKR
# notes: also called Humanized VH1-VL1; U3621EI120 VH1+VL1
# B3: Ab Vh1-VL1W100F (antibody, human IgG1, kappa, V domains shown)
# VH: B2 VH
# VL: B2 VL with W100F
# notes: also called single mutant W100F
# B4: Humanized antibody VH1-VL1 Q58E (antibody, human IgG1, kappa, V domains shown)
# VH: B2 VH
# VL: B2 VL with Q58E
# B5: Humanized antibody VH1 M34A-VL1 (antibody, human IgG1, kappa, V domains shown)
# VH: B2 VH with M34A
# VL: B2 VL
# notes: Antibody purified on protein A
# B6: Humanized antibody VH1 D52E-VL1 (antibody, human IgG1, kappa, V domains shown)
# VH: B2 VH with D52E
# VL: B2 VL
# notes: also called VH1 MD52E-VL1
# B7: Humanized antibody VH1-VL1 Q94E (antibody, human IgG1, kappa, V domains shown)
# VH: B2 VH
# VL: B2 VL with Q94E
# B8: Humanized antibody VH1-VL1 M37A (antibody, human IgG1, kappa, V domains shown)
# VH: B2 VH
# VL: B2 VL with M37A
# B9: Ab Vh1G56A-VL1W100F (antibody, human IgG1, kappa, V domains shown)
# VH: B2 VH with G56A
# VL: B2 VL with W100F
# notes: also called double mutant
# B10: Humanized antibody VH2 + VL3 (antibody, human IgG1, kappa, V domains shown)
# VH: B2 VH with S16A, G44R, A72R, K74T, T76A
# VL: EIVLTQSPATLSLSPGERATLSCRASESVDNYGISFMNWYQQKPGQAPRLLIYAASRQGSGIPARFSGSGSGTDFTLTISSLEPEDFAVYYCQQSKEVPWTFGGGTKLEIKR
# notes: also called U3621EI120 VH2+VL3
# B11: Humanized antibody VH2 + VL2 (antibody, human IgG1, kappa, V domains shown)
# VH: B2 VH with S16A, G44R, A72R, K74T, T76A
# VL: DIQMTQSPSSLSASVGDRVTITCRASESVDNYGISFMNWYQQKPGKAPKLLIYAASRQGSGVPSRFSGSGSGTDFTLTISSLQPEDFATYYCQQSKEVPWTFGGGTKLEIKR
# B12: Humanized antibody VH2 + VL4 (antibody, human IgG1, kappa, V domains shown)
# VH: B2 VH with S16A, G44R, A72R, K74T, T76A
# VL: B10 VL with L4M, L13V, D74E, E83Q, P84S
# B13: Humanized antibody VH4 + VL2 (antibody, human IgG1, kappa, V domains shown)
# VH: B2 VH with S16A, P41T, A72R, D73N, K74T, T76I
# VL: B11 VL
# B14: Humanized antibody VH1 + VL4 (antibody, human IgG1, kappa, V domains shown)
# VH: B2 VH
# VL: B10 VL with L4M, L13V, D74E, E83Q, P84S
# notes: also called U3621EI120 VH1+VL4
# B15: Humanized antibody VH3 + VL2 (antibody, human IgG1, kappa, V domains shown)
# VH: B2 VH with S16A, I70M, A72R, K74T, A79V
# VL: B11 VL
# B16: Humanized antibody VH3 + VL1 (antibody, human IgG1, kappa, V domains shown)
# VH: B2 VH with S16A, I70M, A72R, K74T, A79V
# VL: B2 VL
# B17: Humanized antibody VH4 + VL4 (antibody, human IgG1, kappa, V domains shown)
# VH: B2 VH with S16A, P41T, A72R, D73N, K74T, T76I
# VL: B10 VL with L4M, L13V, D74E, E83Q, P84S
# B18: Humanized antibody VH2 + VL1 (antibody, human IgG1, kappa, V domains shown)
# VH: B2 VH with S16A, G44R, A72R, K74T, T76A
# VL: B2 VL
# B19: Humanized antibody VH4 + VL1 (antibody, human IgG1, kappa, V domains shown)
# VH: B2 VH with S16A, P41T, A72R, D73N, K74T, T76I
# VL: B2 VL
# B20: Humanized antibody VH4 + VL3 (antibody, human IgG1, kappa, V domains shown)
# VH: B2 VH with S16A, P41T, A72R, D73N, K74T, T76I
# VL: B10 VL
# B21: Humanized antibody VH1 + VL3 (antibody, human IgG1, kappa, V domains shown)
# VH: B2 VH
# VL: B10 VL
# B22: Humanized antibody VH3 + VL4 (antibody, human IgG1, kappa, V domains shown)
# VH: B2 VH with S16A, I70M, A72R, K74T, A79V
# VL: B10 VL with L4M, L13V, D74E, E83Q, P84S
# B23: Humanized antibody VH3 + VL3 (antibody, human IgG1, kappa, V domains shown)
# VH: B2 VH with S16A, I70M, A72R, K74T, A79V
# VL: B10 VL
# B24: Humanized antibody VH1 + VL2 (antibody, human IgG1, kappa, V domains shown)
# VH: B2 VH
# VL: B11 VL
# B25: Humanized antibody VH1(G56A) + VL1 (antibody, human IgG1, kappa, V domains shown)
# VH: B2 VH with G56A
# VL: B2 VL
# notes: also called VHG56A-VL1; Humanized VHG56A-VL1
# B26: Murine version of the BTE (scFv of anti-CD3 Okt3 and scFv of the murine anti-IL13Rα2 antibody) (bispecific antibody, V domains shown, not shown: small tags and cut ends)
# VH: B1 VH
# VL: not shown
# notes: Control BTE; also called Okt3BTE; chimeric BTE using the mouse monoclonal Ab VH and VL domains
# Target: T1, Human IL13Rα2
# Assay: SPR Biacore T200, antibody Fc-captured, IL13Rα2 as analyte
Kd [nM],koff [s⁻¹],kon [M⁻¹ s⁻¹],Binder
1.44,0.000523,363000,B1

# Target: T1, Human IL13Rα2
# Assay: plate ELISA on human recombinant IL13Rα2, OD405, N=4
EC50 (read off the curve) [µg/mL],binding result,Binder
~0.02,–,B2
~0.03,–,B3
–,binds,B4
~0.03,–,B5
~0.04,–,B6
~0.01,–,B7
–,binds,B8

# Target: T1, Human IL13Rα2
# Assay: plate ELISA on human IL13Rα2, OD405, N=4 [continued) B]
row,EC50 (read off the curve) [µg/mL],Binder
1,~0.05,B2
2,~0.03,B3
3,~0.03,B9

# Target: T1, Human IL13Rα2
# Assay: SPR Biacore T200, 25 C, antibody captured on Protein A chip, IL13Ra2 analyte 0.625-80 nM
Kd [nM],koff [s⁻¹],kon [M⁻¹ s⁻¹],Binder
0.326,0.000334,1.03e+06,B3
0.277,0.000284,1.02e+06,B9

# Target: T1, Human IL13Rα2
# Assay: SPR Biacore 8K affinity ranking, antibody supernatant Fc-captured, 100 nM IL13Rα2 analyte
Kd [nM],koff [s⁻¹],kon [M⁻¹ s⁻¹],Binder
0.768,0.000329,429000,B2
1.17,0.000761,649000,B10
0.857,0.000555,648000,B11
1.35,0.000748,555000,B12
0.597,0.000445,746000,B13
0.599,0.000269,449000,B14
0.698,0.000595,852000,B15
0.661,0.000595,901000,B16
0.594,0.000501,844000,B17
0.704,0.000417,593000,B18
0.727,0.000424,583000,B19
0.877,0.000675,769000,B20
0.9,0.000463,514000,B21
0.984,0.000615,625000,B22
1.13,0.000702,620000,B23
0.758,0.000312,412000,B24
1.07,0.000544,511000,B1

# Target: T1, Human IL13Rα2
# Assay: SPR Biacore T200, purified IgG Fc-captured, IL13Rα2 as analyte
Kd [nM],koff [s⁻¹],kon [M⁻¹ s⁻¹],Binder
0.283,0.000191,676000,B2
0.513,0.00042,820000,B10
0.297,0.00022,741000,B14
1.45,0.000477,330000,B1

# Target: T1, Human IL13Rα2
# Assay: SPR Biacore T200, antibody captured, IL13Rα2 analyte 0.9375-60 nM
Kd [nM],koff [s⁻¹],kon [M⁻¹ s⁻¹],Binder
0.257,0.00019,740000,B2
0.215,0.000156,727000,B25

# Target: T2, human recombinant IL13Rα2hFc (cat …)
# Assay: plate ELISA on coated IL13Rα2hFc (1 µg/mL), detection with anti-6xHis-HRP, OD450 [continued) D]
row,EC50 (read off the curve) [µg/mL],Binder
1,~0.5,B26

# Target: T1, Human IL13Rα2
# Assay: plate ELISA on human recombinant IL13Rα2, OD405, N=3
row,EC50 (read off the curve) [µg/mL],Binder
1,~0.02,B2
2,~0.02,B25
3,~0.03,B1

# Source: patent US12703750 (NORTHWESTERN UNIVERSITY, dated 2026)
